Residue numbers refer to the chain shown, from its start. Blank lines part the entries; values can stand above or below the binder they belong to.
What was measured:
[1] = target: T1, recombinant cyno IL1RAP ECD (cynomolgus monkey, UniProt P59822 21-367 (rhesus entry)); assay: recombinant protein
T1 construct: also called rcynoIL1RAP
T1 sequence: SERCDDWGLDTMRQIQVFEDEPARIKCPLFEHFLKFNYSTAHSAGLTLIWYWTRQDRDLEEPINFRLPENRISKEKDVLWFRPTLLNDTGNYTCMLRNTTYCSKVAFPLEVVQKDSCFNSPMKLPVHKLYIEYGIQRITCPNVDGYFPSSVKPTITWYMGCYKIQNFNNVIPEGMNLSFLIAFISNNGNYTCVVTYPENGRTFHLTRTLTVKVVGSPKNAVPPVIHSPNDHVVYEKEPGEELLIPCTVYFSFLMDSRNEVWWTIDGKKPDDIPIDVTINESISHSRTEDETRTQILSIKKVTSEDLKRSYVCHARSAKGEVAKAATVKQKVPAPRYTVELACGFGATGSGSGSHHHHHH

[2] = target: T2, cyno IL1RAP ECD displayed on HEK-293F cells (pDisplay) (cynomolgus monkey, UniProt P59822 21-367 (rhesus entry)); assay: HEK-293F cells (MSD)
T2 sequence: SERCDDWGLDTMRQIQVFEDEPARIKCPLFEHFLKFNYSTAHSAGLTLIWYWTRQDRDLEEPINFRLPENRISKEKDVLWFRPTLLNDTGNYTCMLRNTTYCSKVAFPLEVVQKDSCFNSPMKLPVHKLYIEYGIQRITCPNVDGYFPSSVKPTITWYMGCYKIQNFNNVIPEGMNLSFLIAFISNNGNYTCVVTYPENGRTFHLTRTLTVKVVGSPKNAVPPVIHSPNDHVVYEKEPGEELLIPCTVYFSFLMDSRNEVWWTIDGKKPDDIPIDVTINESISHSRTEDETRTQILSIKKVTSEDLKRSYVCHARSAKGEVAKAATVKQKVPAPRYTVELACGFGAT

[3] = target: T3, human IL1RAP ECD displayed on HEK-293F cells (pDisplay) (human, UniProt Q9NPH3 21-367); assay: HEK-293F cells (MSD)
T3 construct: also called Human clone HE2 IL1RAP FL-ECD cell line
T3 sequence: T2 sequence with F183L, P273T, T326K

[4] = target: T4, mouse IL1RAP ECD displayed on HEK-293F cells (pDisplay) (mouse, UniProt Q61730 21-367); assay: HEK-293F cells (MSD)
T4 sequence: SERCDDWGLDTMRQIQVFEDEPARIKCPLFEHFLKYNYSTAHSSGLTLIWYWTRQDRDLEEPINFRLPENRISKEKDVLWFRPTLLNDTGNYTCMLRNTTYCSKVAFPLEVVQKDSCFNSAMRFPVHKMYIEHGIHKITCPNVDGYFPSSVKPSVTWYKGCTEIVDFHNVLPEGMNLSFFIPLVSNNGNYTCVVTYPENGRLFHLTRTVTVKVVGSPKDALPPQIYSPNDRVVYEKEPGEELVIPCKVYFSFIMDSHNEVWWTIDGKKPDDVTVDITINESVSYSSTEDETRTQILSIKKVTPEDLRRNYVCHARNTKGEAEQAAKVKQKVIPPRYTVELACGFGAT

[5] = target: T5, rat IL1RAP ECD displayed on HEK-293F cells (pDisplay) (rat, UniProt Q63621 21-367); assay: HEK-293F cells (MSD)
T5 sequence: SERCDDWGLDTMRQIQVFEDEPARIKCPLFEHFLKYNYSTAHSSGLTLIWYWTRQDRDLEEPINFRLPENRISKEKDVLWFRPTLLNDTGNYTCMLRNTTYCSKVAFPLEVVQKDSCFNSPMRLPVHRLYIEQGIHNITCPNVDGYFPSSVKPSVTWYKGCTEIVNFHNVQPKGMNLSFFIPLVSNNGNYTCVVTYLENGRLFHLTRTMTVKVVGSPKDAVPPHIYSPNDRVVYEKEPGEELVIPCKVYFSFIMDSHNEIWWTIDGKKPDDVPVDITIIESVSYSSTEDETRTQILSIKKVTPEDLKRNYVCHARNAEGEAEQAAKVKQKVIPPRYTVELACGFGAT

binding result [1]: binds
binding result [2]: binds
binding result [3]: binds
binding result [4]: binds
binding result [5]: binds
B1: IAPB38 (antibody, human IgG4 S228P, kappa, F234A L235A, V domains shown)
VH: EVQLLESGGGLVQPGGSLRLSCAASGFTFSNYAMNWVRQAPGKGLEWVSGINYGGGSKYYADSVKGRFTISRDNSKNTLYLQMNSLRAEDTAVYYCAKDYGPFALDYWGQGTLVTVSS
VL: EIVLTQSPATLSLSPGERATLSCRASQSVDDWLAWYQQKPGQAPRLLIYTASNRATGIPARFSGSGSGTDFTLTISSLEPEDFAVYYCQQYHHWPLTFGQGTKVEIKR
notes: IgG4-PAA; whole chains

binding result [1]: binds
binding result [2]: binds
binding result [3]: binds
B2: IAPB62 (antibody, human IgG4 S228P, kappa, F234A L235A, V domains shown)
VH: QVQLVQSGSELKKPGASVKVSCKASGYTFNTYAMNWVRQAPGQGLEWMGWINTNTGNPTYAQGFTGRFVFSLDTSVSTAYLQISSLKAEDTAVYYCARRYFDWLLGAFDIWGQGTMVTVSS
VL: DIQMTQSPSSVSASVGDRVTITCRASQGISSWLAWYQQKPGKAPKLLIYAASSLQSGVPSRFSGSGSGTDFTLTISSLQPEDFATYYCQQANSFPLTFGGGTKVEIKR
notes: IgG4-PAA; whole chains
